T1: APBA1_1, Q02410
T1 sequence (Q02410 651-752, limits assumed, looked up): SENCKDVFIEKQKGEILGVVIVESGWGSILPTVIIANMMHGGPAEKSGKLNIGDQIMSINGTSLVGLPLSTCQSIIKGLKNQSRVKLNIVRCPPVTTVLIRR

T2: APBA1_2, Q02410
T2 sequence (Q02410 742-832, limits assumed, looked up): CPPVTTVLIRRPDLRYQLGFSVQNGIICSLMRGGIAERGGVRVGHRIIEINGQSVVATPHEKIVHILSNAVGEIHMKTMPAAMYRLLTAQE

T3: CARD11, Q9BXL7
T3 sequence (Q9BXL7 662-765, limits assumed, looked up): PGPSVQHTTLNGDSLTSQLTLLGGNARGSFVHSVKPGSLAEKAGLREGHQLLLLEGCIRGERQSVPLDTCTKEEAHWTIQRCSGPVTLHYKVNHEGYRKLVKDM

T4: DLG3_2, Q92796
T4 sequence (Q92796 221-321, limits assumed, looked up): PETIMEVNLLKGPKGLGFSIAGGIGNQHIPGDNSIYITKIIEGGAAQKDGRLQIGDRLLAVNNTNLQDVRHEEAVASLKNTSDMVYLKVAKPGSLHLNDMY

T5: DVL3, Q92997
T5 sequence (Q92997 244-331, limits assumed, looked up): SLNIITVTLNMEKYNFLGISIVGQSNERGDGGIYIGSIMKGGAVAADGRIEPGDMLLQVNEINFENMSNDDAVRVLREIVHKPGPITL

T6: FRMPD1, Q5SYB0
T6 sequence (Q5SYB0 52-145, limits assumed, looked up): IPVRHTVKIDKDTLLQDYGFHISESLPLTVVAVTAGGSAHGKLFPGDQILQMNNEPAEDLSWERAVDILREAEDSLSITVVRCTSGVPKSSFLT

T7: GRIP1_5, Q9Y3R0
T7 sequence (Q9Y3R0 568-668, limits assumed, looked up): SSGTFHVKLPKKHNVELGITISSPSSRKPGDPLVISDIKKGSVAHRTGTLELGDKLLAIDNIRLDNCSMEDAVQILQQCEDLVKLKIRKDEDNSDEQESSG

T8: LIN7B, Q9HAP6
T8 sequence (Q9HAP6 88-185, limits assumed, looked up): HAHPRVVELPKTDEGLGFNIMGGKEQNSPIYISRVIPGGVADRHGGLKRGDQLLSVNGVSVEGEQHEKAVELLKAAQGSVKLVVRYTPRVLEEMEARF

T9: MPDZ_12, O75970
T9 sequence (O75970 1857-1958, limits assumed, looked up): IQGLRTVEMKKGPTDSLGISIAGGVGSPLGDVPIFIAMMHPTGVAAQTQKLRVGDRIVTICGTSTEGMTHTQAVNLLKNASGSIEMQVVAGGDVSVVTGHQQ

T10: PDZD2_2, O15018
T10 sequence (O15018 329-429, limits assumed, looked up): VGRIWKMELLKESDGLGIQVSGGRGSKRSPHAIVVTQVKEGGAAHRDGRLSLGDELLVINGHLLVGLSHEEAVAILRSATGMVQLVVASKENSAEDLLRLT

T11: SNTA1, Q13424
T11 sequence (Q13424 82-180, limits assumed, looked up): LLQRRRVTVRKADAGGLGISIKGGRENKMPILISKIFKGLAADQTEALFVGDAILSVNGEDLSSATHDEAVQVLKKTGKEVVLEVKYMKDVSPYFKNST


Experiments:
Test in all cases: holdup assay
Set-up in all cases: key: below the threshold = too weak to quantify, mostly under pKd 3.1 to 4
Settings in all cases: plain residues with an end cap or a label only (N-terminal biotin on a linker: ttds)
APBA1_1, Q02410 = molecular target: T1, APBA1_1, Q02410
APBA1_2, Q02410 = molecular target: T2, APBA1_2, Q02410
CARD11, Q9BXL7 = molecular target: T3, CARD11, Q9BXL7
DLG1_2, Q12959 = molecular target: DLG1_2, Q12959
DLG1_2, Q12959, sequence (Q12959 314-412): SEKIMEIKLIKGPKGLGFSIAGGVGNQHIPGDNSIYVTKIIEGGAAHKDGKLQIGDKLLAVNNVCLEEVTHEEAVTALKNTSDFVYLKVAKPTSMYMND

DLG3_2, Q92796 = molecular target: T4, DLG3_2, Q92796
DLG4_2, P78352 = molecular target: DLG4_2, P78352
DLG4_2, P78352, sequence (P78352 155-259): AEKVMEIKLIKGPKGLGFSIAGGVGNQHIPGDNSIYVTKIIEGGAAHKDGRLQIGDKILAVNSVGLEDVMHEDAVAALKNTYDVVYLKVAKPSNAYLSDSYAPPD

DLG5_1, Q8TDM6 = molecular target: DLG5_1, Q8TDM6
DLG5_1, Q8TDM6, sequence (Q8TDM6 617-713): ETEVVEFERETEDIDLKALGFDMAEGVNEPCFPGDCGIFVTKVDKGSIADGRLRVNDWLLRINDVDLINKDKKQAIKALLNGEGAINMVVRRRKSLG

DVL3, Q92997 = molecular target: T5, DVL3, Q92997
FRMPD1, Q5SYB0 = molecular target: T6, FRMPD1, Q5SYB0
FRMPD2_1, Q68DX3 = molecular target: FRMPD2_1, Q68DX3
FRMPD2_1, Q68DX3, sequence (Q68DX3 770-861): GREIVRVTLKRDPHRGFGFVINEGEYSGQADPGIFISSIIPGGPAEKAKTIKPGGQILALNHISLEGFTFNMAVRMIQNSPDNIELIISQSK

FRMPD2_2, Q68DX3 = molecular target: FRMPD2_2, Q68DX3
FRMPD2_2, Q68DX3, sequence (Q68DX3 944-1038): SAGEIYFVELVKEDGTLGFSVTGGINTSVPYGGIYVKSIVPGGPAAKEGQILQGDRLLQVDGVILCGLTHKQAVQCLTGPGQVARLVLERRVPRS

GIPC2, Q8TF65 = molecular target: GIPC2, Q8TF65
GIPC2, Q8TF65, sequence (Q8TF65 112-203): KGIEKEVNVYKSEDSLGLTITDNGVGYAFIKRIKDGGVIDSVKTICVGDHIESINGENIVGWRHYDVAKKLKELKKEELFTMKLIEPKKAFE

GOPC, Q9HD26 = molecular target: GOPC, Q9HD26
GRIP1_5, Q9Y3R0 = molecular target: T7, GRIP1_5, Q9Y3R0
IL16_4, Q14005 = molecular target: IL16_4, Q14005
IL16_4, Q14005, sequence (Q14005 1229-1329): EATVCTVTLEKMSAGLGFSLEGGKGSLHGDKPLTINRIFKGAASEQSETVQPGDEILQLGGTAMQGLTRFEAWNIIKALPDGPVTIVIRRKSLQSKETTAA

Inadl_4, Q8NI35 = molecular target: Inadl_4, Q8NI35
Inadl_4, Q8NI35, sequence (Q8NI35 547-651): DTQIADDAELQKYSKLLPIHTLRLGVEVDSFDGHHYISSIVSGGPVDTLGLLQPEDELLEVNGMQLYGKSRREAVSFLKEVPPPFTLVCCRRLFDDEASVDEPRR

Inadl_9, Q8NI35 = molecular target: Inadl_9, Q8NI35
Inadl_9, Q8NI35, sequence (Q8NI35 1530-1615): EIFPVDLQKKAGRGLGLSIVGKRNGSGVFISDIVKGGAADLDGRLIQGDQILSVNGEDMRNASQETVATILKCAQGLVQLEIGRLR

LIN7B, Q9HAP6 = molecular target: T8, LIN7B, Q9HAP6
LNX1_2, Q8TBB1 = molecular target: LNX1_2, Q8TBB1
LNX1_2, Q8TBB1, sequence (Q8TBB1 371-470): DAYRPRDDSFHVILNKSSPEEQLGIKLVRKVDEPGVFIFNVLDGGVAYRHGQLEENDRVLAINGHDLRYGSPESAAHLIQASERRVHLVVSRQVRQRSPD

MAGI2_3, Q86UL8 = molecular target: MAGI2_3, Q86UL8
MAGI2_3, Q86UL8, sequence (Q86UL8 600-682): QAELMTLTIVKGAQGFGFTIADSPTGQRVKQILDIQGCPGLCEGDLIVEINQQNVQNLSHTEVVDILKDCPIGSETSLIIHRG

MAGI2_5, Q86UL8 = molecular target: MAGI2_5, Q86UL8
MAGI2_5, Q86UL8, sequence (Q86UL8 915-1017): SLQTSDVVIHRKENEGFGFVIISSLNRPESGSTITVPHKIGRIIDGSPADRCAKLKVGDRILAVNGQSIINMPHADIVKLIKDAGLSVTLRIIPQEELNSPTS

MPDZ_12, O75970 = molecular target: T9, MPDZ_12, O75970
NHERF4_4, Q86UT5 = molecular target: NHERF4_4, Q86UT5
NHERF4_4, Q86UT5, sequence (Q86UT5 464-550): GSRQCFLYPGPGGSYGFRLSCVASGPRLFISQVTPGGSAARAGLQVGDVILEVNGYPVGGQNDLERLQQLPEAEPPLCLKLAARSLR

PDZD2_2, O15018 = molecular target: T10, PDZD2_2, O15018
SCRIB_1, Q14160 = molecular target: SCRIB_1, Q14160
SCRIB_1, Q14160, sequence (Q14160 718-814): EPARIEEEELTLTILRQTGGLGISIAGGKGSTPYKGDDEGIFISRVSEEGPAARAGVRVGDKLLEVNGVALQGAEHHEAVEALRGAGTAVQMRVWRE

SCRIB_3, Q14160 = molecular target: SCRIB_3, Q14160
SCRIB_3, Q14160, sequence (Q14160 999-1103): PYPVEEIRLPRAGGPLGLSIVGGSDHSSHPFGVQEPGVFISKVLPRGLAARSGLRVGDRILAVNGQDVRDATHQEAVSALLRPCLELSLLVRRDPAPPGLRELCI

SNTA1, Q13424 = molecular target: T11, SNTA1, Q13424

| Binder | pKd (APBA1_1, Q02410) | pKd (APBA1_2, Q02410) | pKd (CARD11, Q9BXL7) | pKd (DLG1_2, Q12959) | pKd (DLG3_2, Q92796) | pKd (DLG4_2, P78352) | pKd (DLG5_1, Q8TDM6) | pKd (DVL3, Q92997) | pKd (FRMPD1, Q5SYB0) | pKd (FRMPD2_1, Q68DX3) | pKd (FRMPD2_2, Q68DX3) | pKd (GIPC2, Q8TF65) | pKd (GOPC, Q9HD26) | pKd (GRIP1_5, Q9Y3R0) | pKd (IL16_4, Q14005) | pKd (Inadl_4, Q8NI35) | pKd (Inadl_9, Q8NI35) | pKd (LIN7B, Q9HAP6) | pKd (LNX1_2, Q8TBB1) | pKd (MAGI2_3, Q86UL8) | further results |
| --- | --- | --- | --- | --- | --- | --- | --- | --- | --- | --- | --- | --- | --- | --- | --- | --- | --- | --- | --- | --- | --- |
| IYVPEAQTRL [DLGAP4, Q9Y2H0] | below the threshold | 3.64 | below the threshold | below the threshold | below the threshold | below the threshold | below the threshold | below the threshold | below the threshold | below the threshold | below the threshold | below the threshold | 4.21 | below the threshold | below the threshold | below the threshold | below the threshold | below the threshold | below the threshold | below the threshold | pKd (MAGI2_5, Q86UL8): 3.82; pKd (MPDZ_12, O75970): below the threshold; pKd (NHERF4_4, Q86UT5): below the threshold; pKd (PDZD2_2, O15018): below the threshold; pKd (SCRIB_1, Q14160): 5.3; pKd (SCRIB_3, Q14160): 3.98; pKd (SNTA1, Q13424): 3.98 |
| PKTPPTDTSV [KIR3DL3, Q8N743] | below the threshold | 3.74 | below the threshold | 3.75 | 4.14 | 4.22 | below the threshold | below the threshold | below the threshold | below the threshold | below the threshold | below the threshold | 3.5 | below the threshold | below the threshold | below the threshold | below the threshold | below the threshold | below the threshold | below the threshold | pKd (MAGI2_5, Q86UL8): below the threshold; pKd (MPDZ_12, O75970): below the threshold; pKd (NHERF4_4, Q86UT5): below the threshold; pKd (PDZD2_2, O15018): 4; pKd (SCRIB_1, Q14160): 3.69; pKd (SCRIB_3, Q14160): below the threshold; pKd (SNTA1, Q13424): below the threshold |
| TVASEKESVM [SLC1A5, Q15758] | below the threshold | below the threshold | below the threshold | below the threshold | 3.55 | below the threshold | below the threshold | below the threshold | below the threshold | below the threshold | below the threshold | 3.54 | 3.76 | 3.55 | below the threshold | below the threshold | below the threshold | below the threshold | below the threshold | below the threshold | pKd (MAGI2_5, Q86UL8): below the threshold; pKd (MPDZ_12, O75970): below the threshold; pKd (NHERF4_4, Q86UT5): below the threshold; pKd (PDZD2_2, O15018): below the threshold; pKd (SCRIB_1, Q14160): 5.2; pKd (SCRIB_3, Q14160): 3.97; pKd (SNTA1, Q13424): 3.81 |
| VLRLQSETSV [VANGL1, Q8TAA9] | below the threshold | 3.6 | below the threshold | 4.86 | 4.64 | 4.71 | below the threshold | below the threshold | below the threshold | below the threshold | 3.72 | 3.75 | below the threshold | below the threshold | below the threshold | below the threshold | below the threshold | 3.67 | below the threshold | below the threshold | pKd (MAGI2_5, Q86UL8): 4; pKd (MPDZ_12, O75970): below the threshold; pKd (NHERF4_4, Q86UT5): below the threshold; pKd (PDZD2_2, O15018): 4.12; pKd (SCRIB_1, Q14160): 5.53; pKd (SCRIB_3, Q14160): 4.54; pKd (SNTA1, Q13424): 4.52 |

Source: PMC9482650, “Quantitative fragmentomics allow affinity mapping of interactomes” (Nature Communications, 2022)
